Tested on: OrfAB-GFP GMF101 V179L ((insertion sequence IS2))
Test: EMSA
Details: panel (50- or 87-mer) not stated in material; 20 mM Tris-Cl pH 8.0, 1 mM EDTA, 5 ug/mL calf thymus DNA, 10 nM DNA, 0.11-0.13 uM protein, 30 min at 20 C; gels at 4 C

With “GGATCCTTAAGTGATAACAGATGTCTGGAAATATAGGGGCAAATCCAGCG (double strand) [IRR 50-mer]” as the sequence, how does the binding signal (binding score (0-5)) read?
The binding signal (binding score (0-5)) was 3.
